Data set [1] deals with T1, TGA2.1 (Oryza sativa (rice), UniProt Q7X993 1-334).
T1 sequence: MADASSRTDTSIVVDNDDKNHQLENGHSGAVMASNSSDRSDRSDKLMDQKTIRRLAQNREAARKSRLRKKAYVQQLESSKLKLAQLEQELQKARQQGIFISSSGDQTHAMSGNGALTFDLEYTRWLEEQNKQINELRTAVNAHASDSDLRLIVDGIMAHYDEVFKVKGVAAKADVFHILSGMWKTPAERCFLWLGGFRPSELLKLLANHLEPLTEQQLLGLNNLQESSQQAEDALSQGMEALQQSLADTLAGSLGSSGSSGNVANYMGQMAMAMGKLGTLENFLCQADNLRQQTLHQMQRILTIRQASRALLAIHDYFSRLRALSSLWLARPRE
Briefly: competition; EMSA competitor 5X, 20X, 100X against biotin-wt probe; EMSA with biotin probe, chemiluminescent detection; buffer, salt, pH and temperature not stated. The conditions noted are these: protein: recombinant; chain copies: 2.

Data set [2] addresses T1, TGA2.1. Briefly: EMSA; competed by unlabeled wt oligonucleotide (5X, 20X, 100X tested); EMSA with biotin probe, chemiluminescent detection; buffer, salt, pH and temperature not stated. Particulars: protein: recombinant; chain copies: 2; label: 5'-biotin on top strand (probe).

B1: CRK10 promoter TGA site mt competitor (dsDNA)
DNA 1: CTCTTTGTGGTGTTGTTCTTC
DNA 2: GAAGAACAACACCACAAAGAG
On to B1, for which the binding result with TGA2.1 [1] was “no binding”.

B2: CRK10 promoter TGA site wt probe (dsDNA)
DNA 1: CTCTTTGTGACGTTGTTCTTC
DNA 2: GAAGAACAACGTCACAAAGAG
Take B2: the binding result with TGA2.1 [2] was “binds”.

For the origin of these results see article PMC4866720, “A Genetic Screen Identifies a Requirement for Cysteine-Rich–Receptor-Like Kinases in Rice NH1 (OsNPR1)-Mediated Immunity”.
